In series [1] the test system is T1, APASM_1021 (AdpA-like protein) (Actinosynnema pretiosum ATCC 31280), ORF:1b9350d8.
T1 sequence: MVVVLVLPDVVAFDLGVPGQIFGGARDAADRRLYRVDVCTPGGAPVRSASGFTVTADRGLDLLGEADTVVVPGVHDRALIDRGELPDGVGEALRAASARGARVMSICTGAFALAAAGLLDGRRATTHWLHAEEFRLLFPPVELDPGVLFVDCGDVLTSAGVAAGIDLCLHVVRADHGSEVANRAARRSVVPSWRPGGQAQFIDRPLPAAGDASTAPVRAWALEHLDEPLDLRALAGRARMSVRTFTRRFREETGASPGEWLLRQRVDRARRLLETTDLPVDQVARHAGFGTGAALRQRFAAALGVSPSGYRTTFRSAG
As to the kind of experiment: competition. The note with it: 10 mM Tris-HCl pH 7.5, 1 mM EDTA, 100 mM KCl, 5% glycerol, 0.1 DTT (unit not given), 0.01 mg/mL BSA; 30 min at 30 C; 10% native PAGE at 4 C.

For series [2] the test system is unchanged. Briefly: EMSA. The note with it: 10 mM Tris-HCl pH 7.5, 1 mM EDTA, 100 mM KCl, 5% glycerol, 0.1 DTT (unit not given), 0.01 mg/mL BSA; 30 min at 30 C; 10% native PAGE at 4 C. (In EMSA bound probe runs differently from free probe, usually more slowly.)

Regarding “TGGAGCCGCTGACGGGGAGCCATCGACGGGAAGCCGCTGACCGGCCTCTCCGCGCCGCCACGCGGGCGCCGCACCTGAACCAGGTGCGGCGCCCGCGTGGTCGCGCCCTTTGACCCCGCCCCCGTTCCCCT (double strand) [P4178 unlabeled competitor]”, the binding result in series [1] was “binds”.

For “TGGAGCCGCTGACGGGGAGCCATCGACGGGAAGCCGCTGACCGGCCTCTCCGCGCCGCCACGCGGGCGCCGCACCTGAACCAGGTGCGGCGCCCGCGTGGTCGCGCCCTTTGACCCCGCCCCCGTTCCCCT (double strand) [P4178]”, the binding result in series [2] is “binds”.
